Source: article PMC10457294 (Nature Communications, 2023)

B1: VACV M2 (vaccinia virus M2), recombinant, His-tagged (natural protein)
chain: VEYKNTICPPRQDYRYWYFAAELTIGVNYDINSTIIGECHMSESYIDRNANIVLTGYGLEINMTIMDTDQRFVAAAEGVGKDNKLSVLLFTTQRLDKVHHNISVTITCMEMNCGTTKYDSDLPESIHKSSSCDITINGSCVTCVNLETDPTKINPHYLHPKDKYLYHNSEYGMRGSYGVTFIDELNQCLLDIKELSYDICYRE

Experiments:
[1] = biological target: T1, human B7.2 ectodomain fused to human Fc (human, UniProt P42081-1 26-238); assay: far-Western, overlay or dot blot; settings: both partners purified
T1 construct: also called hB7.2-Fc; hB7.2-hFc; not shown: Fc (human), C-terminal, kept
T1 sequence (looked up): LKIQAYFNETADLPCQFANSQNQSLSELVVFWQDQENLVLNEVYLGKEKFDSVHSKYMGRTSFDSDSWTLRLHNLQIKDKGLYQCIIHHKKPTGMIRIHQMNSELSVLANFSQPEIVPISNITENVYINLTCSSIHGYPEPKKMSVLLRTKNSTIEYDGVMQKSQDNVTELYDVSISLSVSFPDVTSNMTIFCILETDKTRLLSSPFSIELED

[2] = biological target: the molecule itself; assay: non-reducing against reducing SDS-PAGE
[3] = biological target: B1; assay: far-Western, overlay or dot blot; settings: both partners purified

B1
binding result [1]: binds | binding result [2]: binds

B2: human B7.1 ectodomain fused to human Fc (Fc fusion, UniProt P33681-1 35-234, looked up)
chain: VIHVTKEVKEVATLSCGHNVSVEELAQTRIYWQKEKKMVLTMMSGDMNIWPEYKNRTIFDITNNLSIVILALRPSDEGTYECVVLKYEKDAFKREHLAEVTLSVKADFPTPSISDFEIPTSNIRRIICSTSGGFPEPHLSWLENGEELNAINTTVSQDPETELYAVSSKLDFNMTTNHSFMCLIKYGHLRVNQTFNWNTT
notes: also called hB7.1-Fc; hB7.1-hFc; not shown: Fc (human), C-terminal, kept
binding result [3]: binds
